Results on 125 sequences are retold here after the supplement of paper PMC9112550, “Optimization of the antimicrobial peptide Bac7 by deep mutational scanning” (BMC Biology, 2022).

The subject of this data set is Escherichia coli TOP10. Description: shrunken log2 fold change of peptide-encoding DNA abundance (4.5 h post-induction vs induction); higher = less antimicrobial activity (less host growth inhibition). The following applies: time post-induction: 4.5 h; library: site-saturation at positions 5, 18, 19, 20.
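Note: peptides expressed intracellularly from a pBAD plasmid library in pooled LB shake-flask culture, induced with 0.3% L-arabinose, DNA abundance read by NGS, three biological replicates, DESeq2 with apeglm shrinkage.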

On to RRIRDRPPRLPRPRPRPHCRPRP, for which the “shrunken log2 fold change” value is -0.123.

As for RRIRMRPPRLPRPRPRPMWSPRP, the “shrunken log2 fold change” value was -0.027.

As to RRIRERPPRLPRPRPRPNYQPRP, the “shrunken log2 fold change” value is -0.812.

Consider RRIRARPPRLPRPRPRPFAEPRP, for which the “shrunken log2 fold change” value came to 0.762.

RRIRMRPPRLPRPRPRPWLCPRP: the “shrunken log2 fold change” value was 0.219.

Take RRIRERPPRLPRPRPRPTQPPRP: the “shrunken log2 fold change” value is 0.254.

For RRIRIRPPRLPRPRPRPRNLPRP, the “shrunken log2 fold change” value is -0.306.

Take RRIRHRPPRLPRPRPRPDPAPRP: the “shrunken log2 fold change” value was 0.189.

As to RRIRIRPPRLPRPRPRPWYAPRP, the “shrunken log2 fold change” value is -0.644.

Turning to RRIRFRPPRLPRPRPRPNYSPRP, the “shrunken log2 fold change” value is -0.8.

In the case of RRIRYRPPRLPRPRPRPRVAPRP, the “shrunken log2 fold change” value came out at 0.0343.

As for RRIRARPPRLPRPRPRPMHGPRP, the “shrunken log2 fold change” value was 0.311.

For RRIRWRPPRLPRPRPRPIEKPRP, the “shrunken log2 fold change” value was -0.221.

RRIRFRPPRLPRPRPRPNPPPRP: the “shrunken log2 fold change” value was 0.544.

For the sequence RRIRWRPPRLPRPRPRPVSYPRP, the “shrunken log2 fold change” value is -0.131.

With RRIRHRPPRLPRPRPRPRKMPRP, the “shrunken log2 fold change” value was -0.246.

Take RRIRTRPPRLPRPRPRPMCCPRP: the “shrunken log2 fold change” value was -0.182.

For RRIRKRPPRLPRPRPRPSRQPRP, the “shrunken log2 fold change” value was 0.192.

In the case of RRIRDRPPRLPRPRPRPRMEPRP, the “shrunken log2 fold change” value is -0.239.

As for RRIRHRPPRLPRPRPRPTMEPRP, the “shrunken log2 fold change” value is -0.0987.

For RRIRCRPPRLPRPRPRPDHMPRP, the “shrunken log2 fold change” value is -0.0636.

For RRIRMRPPRLPRPRPRPHGMPRP, the “shrunken log2 fold change” value is -0.0062.

RRIRKRPPRLPRPRPRPTYIPRP: the “shrunken log2 fold change” value is -0.154.

In the case of RRIRLRPPRLPRPRPRPHTCPRP, the “shrunken log2 fold change” value was -0.339.

RRIRKRPPRLPRPRPRPNVMPRP: the “shrunken log2 fold change” value was -0.122.

Regarding RRIRCRPPRLPRPRPRPTNHPRP, the “shrunken log2 fold change” value is -0.573.

Consider RRIRYRPPRLPRPRPRPIQVPRP, for which the “shrunken log2 fold change” value is -0.0153.

On to RRIRLRPPRLPRPRPRPWNPPRP, for which the “shrunken log2 fold change” value was -0.059.

As to RRIRDRPPRLPRPRPRPTCIPRP, the “shrunken log2 fold change” value was 0.0607.

With RRIRARPPRLPRPRPRPRLIPRP, the “shrunken log2 fold change” value came to 0.235.

For the sequence RRIRSRPPRLPRPRPRPDLRPRP, the “shrunken log2 fold change” value stood at 0.248.

On to RRIRLRPPRLPRPRPRPKIDPRP, for which the “shrunken log2 fold change” value is -0.042.

For the sequence RRIRQRPPRLPRPRPRPPNVPRP, the “shrunken log2 fold change” value was -0.0755.

Take RRIRPRPPRLPRPRPRPEDQPRP: the “shrunken log2 fold change” value was found to be 0.106.

Regarding RRIRKRPPRLPRPRPRPQIVPRP, the “shrunken log2 fold change” value was determined as 0.119.

Take RRIRGRPPRLPRPRPRPTMTPRP: the “shrunken log2 fold change” value came to 2.08.

Turning to RRIRVRPPRLPRPRPRPHQHPRP, the “shrunken log2 fold change” value was -0.189.

RRIRPRPPRLPRPRPRPMQKPRP: the “shrunken log2 fold change” value came out at 0.0491.

Regarding RRIRKRPPRLPRPRPRPFLGPRP, the “shrunken log2 fold change” value amounted to 0.0561.

RRIRPRPPRLPRPRPRPAQTPRP: the “shrunken log2 fold change” value turned out to be 0.177.

Regarding RRIRVRPPRLPRPRPRPRHEPRP, the “shrunken log2 fold change” value is 0.193.

Take RRIRGRPPRLPRPRPRPTMDPRP: the “shrunken log2 fold change” value is 0.985.

Take RRIRKRPPRLPRPRPRPGWDPRP: the “shrunken log2 fold change” value is 0.364.

For the sequence RRIRVRPPRLPRPRPRPLVYPRP, the “shrunken log2 fold change” value is -0.193.

As to RRIRFRPPRLPRPRPRPFNSPRP, the “shrunken log2 fold change” value was -0.0372.

For RRIRMRPPRLPRPRPRPTYEPRP, the “shrunken log2 fold change” value is -0.16.

For RRIRIRPPRLPRPRPRPIFDPRP, the “shrunken log2 fold change” value is -0.237.

Turning to RRIRARPPRLPRPRPRPTWKPRP, the “shrunken log2 fold change” value was -0.0384.

Regarding RRIRHRPPRLPRPRPRPGWAPRP, the “shrunken log2 fold change” value was 0.344.

As to RRIRVRPPRLPRPRPRPWDRPRP, the “shrunken log2 fold change” value amounted to 0.0372.

For the sequence RRIRVRPPRLPRPRPRPSPKPRP, the “shrunken log2 fold change” value is 0.24.

On to RRIRMRPPRLPRPRPRPIPEPRP, for which the “shrunken log2 fold change” value was -0.0403.

Consider RRIRERPPRLPRPRPRPFCPPRP, for which the “shrunken log2 fold change” value was -0.149.

Take RRIRSRPPRLPRPRPRPWNTPRP: the “shrunken log2 fold change” value is -0.237.

For RRIRFRPPRLPRPRPRPQDEPRP, the “shrunken log2 fold change” value is -0.0187.

Regarding RRIRNRPPRLPRPRPRPENDPRP, the “shrunken log2 fold change” value was 0.0164.

RRIRYRPPRLPRPRPRPAKHPRP: the “shrunken log2 fold change” value was -0.912.

RRIRERPPRLPRPRPRPLHPPRP: the “shrunken log2 fold change” value stood at 0.309.

As to RRIRQRPPRLPRPRPRPCHIPRP, the “shrunken log2 fold change” value is -0.0316.

Turning to RRIRDRPPRLPRPRPRPWDYPRP, the “shrunken log2 fold change” value was -0.00965.

Consider RRIRIRPPRLPRPRPRPKPDPRP, for which the “shrunken log2 fold change” value was 0.528.

For RRIRQRPPRLPRPRPRPMFCPRP, the “shrunken log2 fold change” value was 0.0313.

RRIRGRPPRLPRPRPRPGRFPRP: the “shrunken log2 fold change” value was found to be 0.45.

RRIRPRPPRLPRPRPRPSHNPRP: the “shrunken log2 fold change” value was -0.645.

As to RRIRIRPPRLPRPRPRPQYIPRP, the “shrunken log2 fold change” value was -0.181.

Turning to RRIRARPPRLPRPRPRPDCQPRP, the “shrunken log2 fold change” value is 0.55.

RRIRRRPPRLPRPRPRPYMDPRP: the “shrunken log2 fold change” value is -0.138.

With RRIRCRPPRLPRPRPRPTGWPRP, the “shrunken log2 fold change” value came to 0.314.

Consider RRIRIRPPRLPRPRPRPPYLPRP, for which the “shrunken log2 fold change” value was -0.612.

For RRIRKRPPRLPRPRPRPKVCPRP, the “shrunken log2 fold change” value is -0.0666.

With RRIRPRPPRLPRPRPRPKRSPRP, the “shrunken log2 fold change” value was determined as 0.0941.

As for RRIRDRPPRLPRPRPRPHKMPRP, the “shrunken log2 fold change” value was -0.293.

On to RRIRARPPRLPRPRPRPPFEPRP, for which the “shrunken log2 fold change” value is 0.504.

On to RRIRVRPPRLPRPRPRPFDYPRP, for which the “shrunken log2 fold change” value is -0.221.

RRIRERPPRLPRPRPRPAINPRP: the “shrunken log2 fold change” value is -0.257.

On to RRIRLRPPRLPRPRPRPLKKPRP, for which the “shrunken log2 fold change” value came to 0.162.

For RRIRWRPPRLPRPRPRPNDRPRP, the “shrunken log2 fold change” value was 0.174.

Consider RRIRLRPPRLPRPRPRPHSMPRP, for which the “shrunken log2 fold change” value was -0.506.

Take RRIRARPPRLPRPRPRPRAIPRP: the “shrunken log2 fold change” value was determined as 0.358.

In the case of RRIRLRPPRLPRPRPRPGWFPRP, the “shrunken log2 fold change” value was found to be 0.147.

With RRIRFRPPRLPRPRPRPVCLPRP, the “shrunken log2 fold change” value was -0.121.

Consider RRIRDRPPRLPRPRPRPFTFPRP, for which the “shrunken log2 fold change” value was -0.167.

As to RRIRMRPPRLPRPRPRPPSIPRP, the “shrunken log2 fold change” value turned out to be 0.411.

For the sequence RRIRSRPPRLPRPRPRPYWVPRP, the “shrunken log2 fold change” value is -0.314.

In the case of RRIRSRPPRLPRPRPRPVFHPRP, the “shrunken log2 fold change” value is -0.026.

For the sequence RRIRGRPPRLPRPRPRPGLEPRP, the “shrunken log2 fold change” value was 1.1.

Take RRIRDRPPRLPRPRPRPFKNPRP: the “shrunken log2 fold change” value turned out to be 0.11.

Turning to RRIRDRPPRLPRPRPRPFYPPRP, the “shrunken log2 fold change” value was -0.109.

For the sequence RRIRFRPPRLPRPRPRPYHQPRP, the “shrunken log2 fold change” value is -0.963.

Turning to RRIRDRPPRLPRPRPRPCGRPRP, the “shrunken log2 fold change” value is 0.147.

Consider RRIRTRPPRLPRPRPRPQIFPRP, for which the “shrunken log2 fold change” value is -0.716.

With RRIRGRPPRLPRPRPRPVPHPRP, the “shrunken log2 fold change” value is -0.0133.

Consider RRIRSRPPRLPRPRPRPTRQPRP, for which the “shrunken log2 fold change” value came to 0.215.

Regarding RRIRGRPPRLPRPRPRPLPQPRP, the “shrunken log2 fold change” value was determined as 0.927.

Take RRIRFRPPRLPRPRPRPHGPPRP: the “shrunken log2 fold change” value is 0.11.

Take RRIRYRPPRLPRPRPRPLHRPRP: the “shrunken log2 fold change” value is -0.116.

With RRIRIRPPRLPRPRPRPGDIPRP, the “shrunken log2 fold change” value was -0.0899.

RRIRMRPPRLPRPRPRPKHLPRP: the “shrunken log2 fold change” value turned out to be 0.142.

Take RRIRERPPRLPRPRPRPMEAPRP: the “shrunken log2 fold change” value is -0.261.

Take RRIRDRPPRLPRPRPRPEWAPRP: the “shrunken log2 fold change” value was 0.746.

Turning to RRIRFRPPRLPRPRPRPQSWPRP, the “shrunken log2 fold change” value was -0.0287.

For RRIRERPPRLPRPRPRPKRVPRP, the “shrunken log2 fold change” value was -0.0417.

As for RRIRLRPPRLPRPRPRPACWPRP, the “shrunken log2 fold change” value stood at 0.498.

Take RRIRVRPPRLPRPRPRPWRFPRP: the “shrunken log2 fold change” value is -0.0846.

Regarding RRIRVRPPRLPRPRPRPAVPPRP, the “shrunken log2 fold change” value is 0.0151.

RRIRLRPPRLPRPRPRPIGRPRP: the “shrunken log2 fold change” value amounted to 0.0169.

On to RRIRNRPPRLPRPRPRPVEMPRP, for which the “shrunken log2 fold change” value turned out to be 0.0554.

Regarding RRIRARPPRLPRPRPRPHMFPRP, the “shrunken log2 fold change” value is 0.0892.

Turning to RRIRHRPPRLPRPRPRPVPFPRP, the “shrunken log2 fold change” value was -0.136.

On to RRIRTRPPRLPRPRPRPDWAPRP, for which the “shrunken log2 fold change” value came out at 0.327.

With RRIRLRPPRLPRPRPRPKCTPRP, the “shrunken log2 fold change” value turned out to be 0.0446.

As for RRIRNRPPRLPRPRPRPDIVPRP, the “shrunken log2 fold change” value is -0.0101.

Turning to RRIRFRPPRLPRPRPRPKWFPRP, the “shrunken log2 fold change” value came out at 0.045.

As for RRIRFRPPRLPRPRPRPGVWPRP, the “shrunken log2 fold change” value was 0.507.

As to RRIRNRPPRLPRPRPRPHDSPRP, the “shrunken log2 fold change” value is -0.0662.

As for RRIRCRPPRLPRPRPRPTEEPRP, the “shrunken log2 fold change” value worked out at 0.325.

Regarding RRIRYRPPRLPRPRPRPVAQPRP, the “shrunken log2 fold change” value was found to be 0.128.

As to RRIRGRPPRLPRPRPRPGKSPRP, the “shrunken log2 fold change” value is 0.176.

Consider RRIRCRPPRLPRPRPRPELFPRP, for which the “shrunken log2 fold change” value amounted to 0.676.

In the case of RRIRWRPPRLPRPRPRPLATPRP, the “shrunken log2 fold change” value is 0.766.

As for RRIRDRPPRLPRPRPRPYEHPRP, the “shrunken log2 fold change” value was found to be 0.077.

Consider RRIRRRPPRLPRPRPRPKFRPRP, for which the “shrunken log2 fold change” value was -0.0588.

For the sequence RRIRCRPPRLPRPRPRPSRYPRP, the “shrunken log2 fold change” value is -0.285.

Consider RRIRTRPPRLPRPRPRPDEDPRP, for which the “shrunken log2 fold change” value was determined as 0.0169.

Regarding RRIRWRPPRLPRPRPRPNHIPRP, the “shrunken log2 fold change” value was -0.569.
